The results in this text go back to US20060057623A1.

This experiment addresses p300 (UniProt Q09472). The experiment is described as follows: cell-based or functional assay.

Chain of p300 (Q09472 2-2414 limits assumed): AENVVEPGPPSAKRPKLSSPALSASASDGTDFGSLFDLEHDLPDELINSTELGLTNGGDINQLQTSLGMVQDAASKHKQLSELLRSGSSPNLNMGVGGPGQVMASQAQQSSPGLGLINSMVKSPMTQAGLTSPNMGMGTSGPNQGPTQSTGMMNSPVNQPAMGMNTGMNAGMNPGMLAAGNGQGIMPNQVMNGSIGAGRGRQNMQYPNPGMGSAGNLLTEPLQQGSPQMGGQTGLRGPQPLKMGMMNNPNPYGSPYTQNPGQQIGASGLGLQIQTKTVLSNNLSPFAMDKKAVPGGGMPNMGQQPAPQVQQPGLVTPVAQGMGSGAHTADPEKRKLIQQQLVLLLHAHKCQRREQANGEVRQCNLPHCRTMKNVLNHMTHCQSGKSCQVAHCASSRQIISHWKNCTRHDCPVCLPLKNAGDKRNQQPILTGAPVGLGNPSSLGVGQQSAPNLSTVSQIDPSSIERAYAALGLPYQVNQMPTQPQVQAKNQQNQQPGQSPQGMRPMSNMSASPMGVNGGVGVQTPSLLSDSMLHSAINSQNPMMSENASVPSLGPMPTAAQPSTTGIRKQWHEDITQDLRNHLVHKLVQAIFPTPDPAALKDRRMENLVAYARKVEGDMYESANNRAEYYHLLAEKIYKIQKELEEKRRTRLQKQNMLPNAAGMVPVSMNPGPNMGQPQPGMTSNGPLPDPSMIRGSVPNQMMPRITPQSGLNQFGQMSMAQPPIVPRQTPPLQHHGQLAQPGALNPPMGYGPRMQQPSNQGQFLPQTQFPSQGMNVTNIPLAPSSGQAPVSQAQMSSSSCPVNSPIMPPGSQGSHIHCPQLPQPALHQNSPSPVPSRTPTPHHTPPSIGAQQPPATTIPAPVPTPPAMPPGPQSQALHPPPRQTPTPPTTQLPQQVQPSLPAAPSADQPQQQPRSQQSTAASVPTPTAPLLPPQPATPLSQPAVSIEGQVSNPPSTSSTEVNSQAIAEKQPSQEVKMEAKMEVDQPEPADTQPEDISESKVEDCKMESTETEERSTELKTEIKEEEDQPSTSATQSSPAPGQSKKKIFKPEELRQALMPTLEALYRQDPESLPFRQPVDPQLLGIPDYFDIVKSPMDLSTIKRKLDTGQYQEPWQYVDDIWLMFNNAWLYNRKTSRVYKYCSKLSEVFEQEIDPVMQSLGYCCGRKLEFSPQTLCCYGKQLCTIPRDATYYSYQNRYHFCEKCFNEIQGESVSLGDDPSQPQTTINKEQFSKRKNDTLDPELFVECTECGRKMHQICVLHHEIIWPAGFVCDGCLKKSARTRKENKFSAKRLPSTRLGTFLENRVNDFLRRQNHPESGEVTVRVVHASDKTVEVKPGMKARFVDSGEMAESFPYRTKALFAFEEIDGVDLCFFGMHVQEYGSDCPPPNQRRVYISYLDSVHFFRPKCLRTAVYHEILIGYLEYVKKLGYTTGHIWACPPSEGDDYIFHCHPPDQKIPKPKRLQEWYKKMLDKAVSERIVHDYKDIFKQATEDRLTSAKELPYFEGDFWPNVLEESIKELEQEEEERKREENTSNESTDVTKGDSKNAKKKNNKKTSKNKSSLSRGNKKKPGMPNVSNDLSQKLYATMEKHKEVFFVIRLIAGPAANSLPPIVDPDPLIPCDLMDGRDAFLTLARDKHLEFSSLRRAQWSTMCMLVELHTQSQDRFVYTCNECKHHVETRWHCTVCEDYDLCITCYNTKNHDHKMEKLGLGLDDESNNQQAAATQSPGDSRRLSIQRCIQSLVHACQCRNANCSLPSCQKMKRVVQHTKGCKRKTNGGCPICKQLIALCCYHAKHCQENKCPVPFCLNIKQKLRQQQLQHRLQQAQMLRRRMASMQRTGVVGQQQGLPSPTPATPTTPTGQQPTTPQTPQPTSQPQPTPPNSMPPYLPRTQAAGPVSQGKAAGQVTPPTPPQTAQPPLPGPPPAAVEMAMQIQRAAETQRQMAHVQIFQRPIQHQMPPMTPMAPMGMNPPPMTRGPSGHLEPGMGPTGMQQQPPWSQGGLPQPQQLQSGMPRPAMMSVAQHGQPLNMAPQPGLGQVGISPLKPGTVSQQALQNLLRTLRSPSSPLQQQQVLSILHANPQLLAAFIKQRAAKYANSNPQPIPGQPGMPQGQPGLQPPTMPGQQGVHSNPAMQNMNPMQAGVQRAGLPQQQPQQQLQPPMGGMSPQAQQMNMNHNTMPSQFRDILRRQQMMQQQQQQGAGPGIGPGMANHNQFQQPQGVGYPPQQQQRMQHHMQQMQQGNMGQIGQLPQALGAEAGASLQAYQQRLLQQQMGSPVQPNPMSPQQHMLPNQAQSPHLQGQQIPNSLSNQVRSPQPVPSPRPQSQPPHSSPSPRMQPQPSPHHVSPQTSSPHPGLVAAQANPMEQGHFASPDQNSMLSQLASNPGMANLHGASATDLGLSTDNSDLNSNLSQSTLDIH

In turn, “E1AΔ2-36, a p300 binding-defective mutant” registered a cyclin D1 promoter CD1 (-1745/+134) luciferase activity with SENP1 (PC-3 cells) of 38%.
